Here are results for eight molecules from article PMC4714923 (Biochemistry, 2015).

B1: mutant Hsp90α tracer (Fam-DDTSRIEEVD) (peptide)
peptide: {5‑Fam-Ahx}-DDTSRIEEVD
B2: Human DnaJC7 (natural protein, UniProt Q99615 1-494, looked up)
chain: MAAAAECDVVMAATEPELLDDQEAKREAETFKEQGNAYYAKKDYNEAYNYYTKAIDMCPKNASYYGNRAATLMMLGRFREALGDAQQSVRLDDSFVRGHLREGKCHLSLGNAMAACRSFQRALELDHKNAQAQQEFKNANAVMEYEKIAETDFEKRDFRKVVFCMDRALEFAPACHRFKILKAECLAMLGRYPEAQSVASDILRMDSTNADALYVRGLCLYYEDCIEKAVQFFVQALRMAPDHEKACIACRNAKALKAKKEDGNKAFKEGNYKLAYELYTEALGIDPNNIKTNAKLYCNRGTVNSKLRKLDDAIEDCTNAVKLDDTYIKAYLRRAQCYMDTEQYEEAVRDYEKVYQTEKTKEHKQLLKNAQLELKKSKRKDYYKILGVDKNASEDEIKKAYRKRALMHHPDRHSGASAEVQKEEEKKFKEVGEAFTILSDPKKKTRYDSGQDLDEEGMNMGDFDPNNIFKAFFGGPGGFSFEASGPGNFFFQFG
B3: Hsp90α Lys mutant tracer (Fam-DDTSRMEKVD) (peptide)
peptide: {5‑Fam-Ahx}-DDTSRMEKVD
B4: Hsp90α Ala mutant tracer (Fam-DDTSRMEAVD) (peptide)
peptide: {5‑Fam-Ahx}-DDTSRMEAVD
B5: Human CHIP (carboxyl terminus of Hsc70 interacting protein) (natural protein, UniProt Q9UNE7 1-303, looked up)
chain: MKGKEEKEGGARLGAGGGSPEKSPSAQELKEQGNRLFVGRKYPEAAACYGRAITRNPLVAVYYTNRALCYLKMQQHEQALADCRRALELDGQSVKAHFFLGQCQLEMESYDEAIANLQRAYSLAKEQRLNFGDDIPSALRIAKKKRWNSIEERRIHQESELHSYLSRLIAAERERELEECQRNHEGDEDDSHVRAQQACIEAKHDKYMADMDELFSQVDEKRKKRDIPDYLCGKISFELMREPCITPSGITYDRKDIEEHLQRVGHFDPVTRSPLTQEQLIPNLAMKEVIDAFISENGWVEDY
B6: Hsc70 C-terminal tracer (Fam-SSGPTIEEVD) (peptide)
peptide: {5‑Fam-Ahx}-SSGPTIEEVD
B7: Hsp72 C-terminal tracer (Fam-GSGPTIEEVD) (peptide)
peptide: {5‑Fam-Ahx}-GSGPTIEEVD
B8: chimeric mutant Hsp72 tracer (Fam-GSGPTMEEVD) (peptide)
peptide: {5‑Fam-Ahx}-GSGPTMEEVD

Where no end group is shown, it is not given here. 5‑Fam = 5-carboxyfluorescein; Ahx = NCCCCCC(=O)O

Experiment in all cases: fluorescence polarisation
The target in experiment [1] is T1, Human FKBP51 (51-kDa FK506-binding protein) (human, UniProt Q13451 1-457).
T1 sequence (looked up): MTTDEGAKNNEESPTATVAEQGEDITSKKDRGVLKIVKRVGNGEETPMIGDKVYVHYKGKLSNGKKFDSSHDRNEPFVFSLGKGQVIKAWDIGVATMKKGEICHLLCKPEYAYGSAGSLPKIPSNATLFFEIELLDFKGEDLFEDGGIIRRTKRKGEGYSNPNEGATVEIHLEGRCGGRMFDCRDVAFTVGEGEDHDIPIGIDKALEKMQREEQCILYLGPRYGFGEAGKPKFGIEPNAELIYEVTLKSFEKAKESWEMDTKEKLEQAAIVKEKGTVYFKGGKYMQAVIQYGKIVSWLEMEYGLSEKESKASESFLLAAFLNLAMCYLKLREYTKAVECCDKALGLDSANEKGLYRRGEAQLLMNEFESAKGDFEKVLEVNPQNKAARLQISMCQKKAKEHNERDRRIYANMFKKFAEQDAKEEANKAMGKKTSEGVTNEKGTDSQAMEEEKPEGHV

In experiment [2] the target is Human Hop (Hsp70/Hsp90 organizing protein) (human, UniProt P31948 1-543).
The target of experiment [3] is T2, Human FKBP52 (52-kDa FK506-binding protein) (human, UniProt Q02790 1-459).
T2 sequence (looked up): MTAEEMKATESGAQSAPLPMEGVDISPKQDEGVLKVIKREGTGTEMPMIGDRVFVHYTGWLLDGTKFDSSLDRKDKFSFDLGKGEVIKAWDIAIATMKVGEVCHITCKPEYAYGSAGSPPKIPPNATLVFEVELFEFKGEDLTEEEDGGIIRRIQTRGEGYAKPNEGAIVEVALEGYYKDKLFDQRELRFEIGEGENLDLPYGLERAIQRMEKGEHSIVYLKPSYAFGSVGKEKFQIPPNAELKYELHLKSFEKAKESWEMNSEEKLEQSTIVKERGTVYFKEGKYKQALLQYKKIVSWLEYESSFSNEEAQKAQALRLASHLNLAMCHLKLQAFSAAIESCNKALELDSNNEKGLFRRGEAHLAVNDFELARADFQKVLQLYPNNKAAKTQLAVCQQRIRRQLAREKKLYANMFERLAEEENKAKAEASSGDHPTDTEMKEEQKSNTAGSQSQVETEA

For experiment [4], the target named is Human Hsp72 (HSPA1A), full-length (human, UniProt P0DMV8 1-641).
The target of another experiment is Hop K8A (human, UniProt P31948 1-543, K8A).
Another experiment addresses Hop R77A (human, UniProt P31948 1-543, R77A).
In experiment [5] the target is B5.

Sequence of Human Hsp72 (HSPA1A), full-length (P0DMV8 whole entry): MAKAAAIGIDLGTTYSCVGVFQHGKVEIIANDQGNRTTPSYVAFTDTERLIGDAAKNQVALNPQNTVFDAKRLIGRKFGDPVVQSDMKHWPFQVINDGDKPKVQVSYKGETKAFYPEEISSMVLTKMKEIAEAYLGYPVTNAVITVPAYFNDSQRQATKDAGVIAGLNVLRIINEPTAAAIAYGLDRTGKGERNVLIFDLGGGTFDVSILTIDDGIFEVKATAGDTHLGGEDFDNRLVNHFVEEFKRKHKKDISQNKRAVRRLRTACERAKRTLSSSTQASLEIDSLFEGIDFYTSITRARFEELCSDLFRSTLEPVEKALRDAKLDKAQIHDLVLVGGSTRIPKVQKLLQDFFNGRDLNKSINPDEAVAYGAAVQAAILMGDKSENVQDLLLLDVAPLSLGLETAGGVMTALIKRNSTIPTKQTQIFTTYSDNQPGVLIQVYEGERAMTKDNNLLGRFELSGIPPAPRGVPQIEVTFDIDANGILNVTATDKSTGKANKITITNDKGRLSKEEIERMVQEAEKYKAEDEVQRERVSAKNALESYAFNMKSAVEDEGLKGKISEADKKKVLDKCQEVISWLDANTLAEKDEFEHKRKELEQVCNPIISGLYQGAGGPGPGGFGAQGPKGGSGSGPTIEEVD

As usually defined, the Kd is the equilibrium constant for the complex coming apart. Read a low Kd as tighter binding. For B1, the Kd in experiment [1], in experiment [2] and in experiment [3] was more than 25 µM each time.

For B2, in experiment [4], the binding result is recorded as “binds”.

Turning to B3, the Kd in experiment [1] and in experiment [3] was more than 25 µM throughout.

In experiment [1], B4 registered a Kd of 4.63 µM.

In the case of B5, the binding result in experiment [4] is reported as “binds”.

As to B6, the Kd in the experiment with Hop K8A is more than 25 µM; in experiment [1], more than 75 µM; with Hop R77A, more than 25 µM; in experiment [3], more than 75 µM.

In the case of B7, the Kd with Hop K8A is more than 25 µM; in experiment [5], 510 nM; in the experiment with Hop R77A, more than 25 µM; in experiment [3] it was more than 75 µM.

In the case of B8, the Kd in experiment [1] and in experiment [3] was more than 75 µM in each case.
